Measurements: US20240241124

How the values were obtained:
[1] = target: SecV sensor (version not stated)
[2] = target: T1, SecV sensor, EDANS/DABCYL version (β-sec^V1 strand annealed to ES3) (not fully specified)
T1 chain: RKFEADLNVEERC

[3] = target: T2, SecV sensor, HiLyte-Fluor 488/QXL520 version (β-sec^V2 strand annealed to ES3) (not fully specified)
T2 chain: KFEADLNVEKC

B1: recombinant human BACE1 (beta-site APP cleaving enzyme 1), purified enzyme (ab271386, Abcam) (protein)
chain: TQHGIRLPLRSGLGGAPLGLRLPRETDEEPEEPGRRGSFVEMVDNLRGKSGQGYYVEMTVGSPPQTLNILVDTGSSNFAVGAAPHPFLHRYYQRQLSSTYRDLRKGVYVPYTQGKWEGELGTDLVSIPHGPNVTVRANIAAITESDKFFINGSNWEGILGLAYAEIARPDDSLEPFFDSLVKQTHVPNLFSLQLCGAGFPLNQSEVLASVGGSMIIGGIDHSLYTGSLWYTPIRREWYYEVIIVRVEINGQDLKMDCKEYNYDKSIVDSGTTNLRLPKKVFEAAVKSIKAASSTEKFPDGFWLGEQLVCWQAGTTPWNIFPVISLYLMGEVTNQSFRITILPQQYLRPVEDVATSQDDCYKFAISQSSTGTVMGAVIMEGFYVVFDRARKRIGFAVSACHVHDEFRTAAVEGPFVTLDMEDCGYNIPQTDESTLMT
lowest amount of BACE1 giving detectable change in sensor signal [1]: The SecV sensor showed detectable changes in signal from 8 ng and remains linear until 80 ng | upper end of linear range of sensor signal against amount of BACE1 [1]: The SecV sensor showed detectable changes in signal from 8 ng and remains linear until 80 ng | fold change in sensor response (G/R ratio), in vitro BACE1 activity assay [2]: A >3.0-fold change in sensor response was observed when EDANS and DABCYL were used as a FRET pair | fold change in sensor response (G/R ratio), in vitro BACE1 activity assay [3]: a >1.8-fold response when HyLite-488 and QXL520 were used as a FRET pair | fold change in the signal (G/R ratio), in vitro specificity assay [3]: upon addition of BACE1 the sensor showed a 1.8-fold change in the signal
